# Positions of bridges follow the written chain, without caps; N, C: chain ends. No end group written: not given here.
# B1: C1 peptide (peptide)
# peptide: DYKDCWARPCGDAANFYDWFVQQASKK
# modifications: disulfide 5-10 (inferred)
# notes: synthetic; biotinylated where printed as b-C1 or D112; also called D112; b-C1
# Experiments:
# sIGF-1R-Fc = molecular target: T1, sIGF-1R-Fc (UniProt P08069 31-935); assay: phage ELISA
# T1 construct: also called slGF-1R-Fc; not shown: Fc part not described
# [1] = molecular target: T2, soluble human insulin receptor (IR-Fc) (human, UniProt P06213 28-956); assay: assay not given
# T2 construct: extracellular domain; retains the beta-alpha-alpha-beta structure; also called sIR; sIR-Fc
# [2] = molecular target: human IGF-1 receptor (HIGF-1R) (human, UniProt P08069 31-1367); assay: displacement of 125I-IGF-1 from HIGF-1R
Binder,binding result (sIGF-1R-Fc),further results
HPSTNQMLMKLFGGGS (on phage; motif 7) [IM450 (Δ-12-3 #28)],no binding,
HPPLSELKLFLIGGGS (on phage; motif 7) [IM451 (Δ-12-3 #34)],no binding,
HPTSKEIYAKLLGGGS (on phage; motif 7) [IM449 (Δ-12-3 #43)],no binding,
HPSLSDMRWILLGGGS (on phage; motif 7) [IM459 (Δ-12-3* #60)],no binding,
APTFYAWFNQQTGGGS (on phage; also called ~J229) [IM445 (Δ-12-3 #6)],,IC50 [1]: ~2400 nM
HPPLEHLKAFLLGGGS (on phage; motif 7; also called ~J228) [IM452 (Δ-12-3 #23)],no binding,
B1,,binding result [2]: binds
